Measured values: article PMC12823590

Target: recombinant OsLIKE1-KD from E. coli (GST-OsLIKE1-KD and OsLIKE1-KD-His) (rice)
Experiment: native gel or EMSA

Substance: recombinant OsLIKE1-KD from E. coli (GST-OsLIKE1-KD and OsLIKE1-KD-His) (domain or fragment)
- stoichiometry N: 2
